{"source": "patent US20060205037A1", "about": "“Modified transferrin fusion proteins” (priority 2003, published 2006)", "key": {"diabetic db/db mice": {"tested_on": "diabetic db/db mice", "assay": "overnight fast and IPGTT in diabetic mice after SC administration", "type": "in vivo", "conditions": "SC at 9 pm, fasted overnight; GLP-1-Tf 1 or 10 mg", "procedure": "A group of diabetic mice were given Tf or GLP-1-Tf via SC administration at 9 pm, fasted overnight and an IPGTT performed the next morning. The fasted Tf-treated animals had lower fasting blood glucose than ad libitum fed animals (238±39 versus 358±23 mg/dl; compare 0 time/fasted animals of FIG. 10c with 0 time/fed animals of FIG. 10a), and additionally, the animals given 1 or […] had lower fasting blood glucose (132±27 mg/dl) than those given Tf alone."}, "db/db mice": {"tested_on": "db/db mice", "assay": "β-cell proliferation (BrdU) and β-cell mass in db/db mice", "type": "in vivo", "conditions": "10 mg/kg IP, third day", "procedure": "db/db mice, 6 per time point, received one IP injection of Tf (10 mg/kg) or GLP-1-Tf (10 mg/kg) and were sacrificed 1, 2 and 3 days later for measurement of β-cell proliferation and 3, 5, 8 and 10 days later for measurement of islet mass. Sixty mg/kg 5-bromo-2-deoxyuridine (BrdU, Sigma) was injected IP 6 hours before sacrifice. BrdU is a thymidine analog that is incorporated during S-phase of cell mitosis. Pancreata were removed, fixed overnight in 4% buffered formalin, processed for embedding in paraffin and histological sections (4 μm) mounted on poly-1-lysine-coated glass slides. BrdU was detected with a BrdU antibody (Sigma, 1:500 and also confirmed with Zymed antibody, 1:250) and BrdU staining kit (Zymed Laboratories Inc). Five to six hundred islets from each condition were then visualized and the number of islets that contained BrdU+ cells as well as the percent BrdU+ nuclei per total number of islet cells was quantified. For insulin staining and determination of β-cell mass histological sections were treated with a guinea-pig insulin antibody (Linco). […] The total pancreatic area and β-cell positive area for every image were quantified using MetaMorph 4.6.3 software (Universal Imaging Inc., West Chester)."}}, "data": [{"molecule": "Tf: transferrin with the two N-linked glycosylation sites eliminated, expressed in S. cerevisiae; control protein (protein) VPDKTVRWCAVSEHEATKCQSFRDHMKSVIPSDGPSVACVKKASYLDCIRAIAANEADAVTLDAGLVYDAYLAPNNLKPVVAEFYGSKEDPQTFYYAVAVVKKDSGFQMNQLRGKKSCHTGLGRSAGWNIPIGLLYCDLPEPRKPLEKAVANFFSGSCAPCADGTDFPQLCQLCPGCGCSTLNQYFGYSGAFKCLKDGAGDVAFVKHSTIFENLANKADRDQYELLCLDNTRKPVDEYKDCHLAQVPSHTVVARSMGGKEDLIWELLNQAQEHFGKDKSKEFQLFSSPHGKDLLFKDSAHGFLKVPPRMDAKMYLGYEYVTAIRNLREGTCPEAPTDECKPVKWCALSHHERLKCDEWSVNSVGKIECVSAETTEDCIAKIMNGEADAMSLDGGFVYIAGKCGLVPVLAENYNKADNCEDTPEAGYFAVAVVKKSASDLTWDNLKGKKSCHTAVGRTAGWNIPMGLLYNKINHCRFDEFFSEGCAPGSKKDSSLCKLCMGSGLNLCEPNNKEGYYGYTGAFRCLVEKGDVAFVKHQTVPQNTGGKNPDPWAKNLNEKDYELLCLDGTRKPVEEYANCHLARAPNHAVVTRKDKEACVHKILRQQQHLFGSNVADCSGNFCLFRSETKDLLFRDDTVCLAKLHDRNTYEKYLGEEYVKAVGNLRKCSTSSLLEACTFRRP", "values": [{"measurement": "fasting blood glucose", "setting": "diabetic db/db mice", "result": "238 ± 39", "unit": "mg/dL"}, {"measurement": "islets with 1 or more BRDU+ nuclei", "setting": "db/db mice", "result": 35, "unit": "%"}]}]}
